Data taken from patent US20200369752A1 (published 2020).

B1: Syn7031.50.32 (antibody, V domains shown)
VH: EVQLVETGGGLVQPKGSLKLSCAASGFTFNTNAMNWVRQAPGKGLEWVVRIRTKSNNYATYYADSVKDRFTISRDDSQSMLYLQMNNLKTEDTAMYYCVRGGTGTGAMDYWGQGTSVTVSS
VL: DVVMTQTPLSLPVSLGDQASISCRSSQSLVHSNGNTYLHWCLQKPGQSPKLLIYKVSNRFSGVPDRFSGSGSGTDFTLKISRVEAEDLGVYFCSQSTHVPLTFGAGTKLELK
B2: Syn7012.15.32 (antibody, V domains shown)
VH: EVQLVETGGGLVQPKGSLKLSCAASGFTFNTNAMNWVRQAPGKGLEWVVRIRTKSNNYATYYADSVKDRFTISRDDSQSMLYLQMNNLKTEDTAMYYCVRGGTGTGAMDYWGQGTSVTVSS
VL: NIMMTQSPSSLAVSAGEKVTMSCKSSQSVLYSSNQKNYLAWYQQKPGQSPKLLIYWASTRESGVPDRFTGSGSGTDFTLTISSVQAEDLAVYYCHQYLSSYTFGGGTKLEIK
B3: Syn7009.32.40 (antibody, V domains shown)
VH: EVQLVETGGGLVQPKGSLKLSCAASGFTFNTNAMNWVRQAPGKGLEWVVRIRTKSNNYATYYADSVKDRFTISRDDSQSMLYLQMNNLKTEDTAMYYCVRGGTGTGAMDYWGQGTSVTVSS
VL: DVVMTQTPLSLPVSLGDQASISCRSSQSLVHSNGNTYLHWCLQKPGQSPKLLIYKVSNRFSGVPDRFSGSGSGTDFTLKISRVEAEDLGVYFCSQSTHVPLTFGAGTKLELK

Legend:
[1] = target: human monomeric α-Synuclein (UniProt P37840 1-140); assay: sandwich ELISA
[2] = target: human fibrillar (PFF) α-Synuclein (UniProt P37840 1-140); assay: sandwich ELISA

Binder | EC50 [1] | EC50 [2]
B1 | 567 nM | 8.86 nM
B2 | 555 nM | 10.6 nM
B3 | 947 nM | 10.1 nM
